Data on 2 molecules can be found in PMC5966361, “Ligand binding and conformational changes of SUR1 subunit in pancreatic ATP-sensitive potassium channels” (Protein & Cell, 2018).

Data set [1] deals with SUR1-Kir6.2 fusion construct with a 39-residue linker (Mesocricetus auratus | Mus musculus). Kind of data set: SEC; screening of fusion constructs: cleared lysate of transfected FreeStyle 293-F cells solubilised in 20 mmol/L HEPES pH 8.0, 120 mmol/L KCl, 1% digitonin, loaded onto a Superose 6 increase column. Background: In gel filtration, larger molecules generally elute earlier.

Data set [2] concerns the molecule itself. As to the kind of experiment: cryo-EM structure; Mg-ADP state: purified fusion channel in 20 mmol/L HEPES pH 8.0, 120 mmol/L KCl, 0.1% digitonin, with 2.5 mmol/L MgCl2, 1 mmol/L ADP, 400 μmol/L 08:0 PI(4,5)P2, 500 μmol/L NN414 and 1 mmol/L Na3VO4; C4 symmetry.

For orientation: stoichiometry N means the number of molecules, sites or subunits per partner or assembly. “SUR1-Kir6.2 fusion construct with a 39-residue linker (complex)” came in with a stoichiometry N in data set [1] of 4.

B1: Kir6.2 (inward-rectifying potassium channel 6.2) subunit, as part of the SUR1-Kir6.2 fusion construct (natural protein, Mus musculus)
chain: MLSRKGIIPEEYVLTRLAEDPAEPRYRTRERRARFVSKKGNCNVAHKNIREQGRFLQDVFTTLVDLKWPHTLLIFTMSFLCSWLLFAMVWWLIAFAHGDLAPGEGTNVPCVTSIHSFSSAFLFSIEVQVTIGFGGRMVTEECPLAILILIVQNIVGLMINAIMLGCIFMKTAQAHRRAETLIFSKHAVITLRHGRLCFMLRVGDLRKSMIISATIHMQVVRKTTSPEGEVVPLHQVDIPMENGVGGNGIFLVAPLIIYHVIDSNSPLYDLAPSDLHHHQDLEIIVILEGVVETTGITTQARTSYLADEILWGQRFVPIVAEEDGRYSVDYSKFGNTIKVPTPLCTARQLDEDRSLLDALTLASSRGPLRKRSVAVAKAKPKFSISPDSLS
notes: Kir6.2 from Mus musculus (Woo et al., 2013); In the assay it stood as the C-terminal part of the fusion chain of m1; its N-terminus is joined through the 39-residue linker to the C-terminus of SUR1, so it has no free native N-terminus; The linker and the Kir6.2 N-terminus are disordered in the maps; also called mmKir6.2; source: FreeStyle 293-F cells, BacMam system, purified as part of the fusion …
Turning to B1, the “stoichiometry N” value in data set [2] turned out to be 4.
